The values below come from US9150655B2, “Anti-C-met antibody and methods of use thereof” (ACADEMIA SINICA, priority 2010, dated 2015).

One assay relates to VEGF-stimulated HUVECs. Briefly: FACS of scFv binding to VEGF-stimulated HUVECs. Format: cell-based, human. As to the method:
(§1) The binding activities of anti-c-Met scFvs to endogenous c-Met were analyzed in cancer cells by ELISA (FIG. 9, panel A). […] Normal mouse IgG was used as a control antibody. FACS analysis was performed to verify that […] anti-c-Met scFvs also bound VEGF-stimulated HUVECs. Anti-CD31 antibody and control scFv were used a positive and negative control, respectively (FIG. 9, panel B).

In another assay the target is T1, c-Met567-Fc protein (Homo sapiens, UniProt P08581).
T1 construct: DNA fragments encoding amino acid residues 1 to 932 and 1 to 567 of c-Met were amplified by PCR; made in house; host or cells: 293T cells, transient transfection, protein G purification from supernatant
T1 sequence (P08581 25-567): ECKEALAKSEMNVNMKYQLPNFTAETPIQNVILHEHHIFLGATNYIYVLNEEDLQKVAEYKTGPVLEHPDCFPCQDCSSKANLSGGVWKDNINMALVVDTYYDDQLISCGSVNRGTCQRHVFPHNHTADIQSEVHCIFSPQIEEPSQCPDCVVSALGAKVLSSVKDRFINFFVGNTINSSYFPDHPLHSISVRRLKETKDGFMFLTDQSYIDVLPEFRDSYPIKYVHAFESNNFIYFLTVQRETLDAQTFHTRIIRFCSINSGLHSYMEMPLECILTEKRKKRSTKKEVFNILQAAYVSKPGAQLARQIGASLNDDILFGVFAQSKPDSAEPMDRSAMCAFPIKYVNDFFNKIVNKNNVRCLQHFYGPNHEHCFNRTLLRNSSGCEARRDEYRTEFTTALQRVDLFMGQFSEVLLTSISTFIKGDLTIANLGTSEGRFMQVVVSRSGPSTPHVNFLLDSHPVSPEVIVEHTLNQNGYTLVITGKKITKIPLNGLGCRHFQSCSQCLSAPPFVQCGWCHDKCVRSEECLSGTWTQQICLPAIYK
In words: Epitope ELISA on c-Met932-Fc and c-Met567-Fc. As to conditions: immobilized recombinant proteins. Format: binding. Here is the method:
Therefore, binding epitopes of anti-c-Met scFvs localized within HGF binding domain of c-Met were investigated. The binding ability of anti-c-Met scFvs was examined for c-Met932-Fc protein including whole extracellular domain of c-Met, and c-Met567-Fc protein containing Sema and PSI domain, both of which have been defined as HGF binding regions (FIG. 2, panel C). The c-Met recombinant proteins were immobilized on titer wells, and incubated with anti-c-Met scFvs. Anti-c-Met polyclonal antibody and anti-E tag antibody was used as a positive and negative control, respectively. […] The binding intensity of S1 for c-Met932-Fc was similar to that for c-Met567-Fc.
On the technique in general: In an ELISA, binding on a coated surface is turned into a signal by an enzyme label.

In another assay the target is T2, c-Met (Homo sapiens, UniProt P08581).
T2 construct: endogenous in cells; host or cells: A549
In words: HGF-induced c-Met phosphorylation in A549 cells (Western blot). The format is cell-based. As to conditions: A549 cells co-treated with HGF and S1 at 37° C. for 15 min; relative to cells without S1. Here is the method: Since the anti-c-Met scFv S1 presented superiorly competitive capability, whether S1 would antagonize HGF to activate c-Met in cancer cells was examined. A549 cells were co-treated with HGF and S1 at 37° C. for 15 min. Total cell lysate was subjected to Western blotting using anti-tyrosine-phosphorylated c-Met antibody and an antibody against the c-Met β-chain (c-Met). Quantification of phosphorylated c-Met was based on luminescence intensity and normalized with total c-Met.
For orientation: A western blot detects proteins with antibodies after separation by electrophoresis.

The next assay addresses T3, c-Met932-Fc protein (Homo sapiens, UniProt P08581).
T3 construct: DNA fragments encoding amino acid residues 1 to 932 and 1 to 567 of c-Met were amplified by PCR; made in house; host or cells: 293T cells, transient transfection, protein G purification from supernatant
Briefly: Binding kinetics of anti-c-Met scFv by SPR (BIAcore). As to the method: The affinity and kinetics of anti-c-Met scFv were measured by SRP in BIAcore X (GE healthcare). In BIAcore flowcell, 30 μg/ml of c-MetF932-Fc protein was coupled to EDC- and NHS-activated CM5 sensor chip followed by blocking with ethanolamine according to manufacturer's directions. Associated and dissociated phases were monitored for 3 and 5 min, respectively, under continuous flow of 30 μl/min using scFv concentrations ranging 5 to 200 nM. Regeneration was performed by injection of regenerate buffer (0.2 M NaCl, 10 mM glycine, pH 2.7). To determine binding constants, the sensorgrams were fit globally to a sample 1:1 interaction model using BIAevaluation software (GE healthcare).
Binding kinetic constants (Kon and Koff) and affinity of each soluble scFv for c-Met932-Fc protein were measured by Surface Plasmon Resonance (SPR).
Kon and Koff were measured by SRP in a BIAcore using purified scFvs, and the Kd was calculated by BIAevaluation software.
A general note: SPR reads the build-up and loss of mass on a sensor chip optically.

Assay [1] concerns the target T4, endogenous c-Met on H460 cells (Homo sapiens, UniProt P08581).
T4 construct: endogenous in cells; host or cells: H460 and MET-KD H460
In words: FACS of scFv binding to H460 and c-Met knockdown H460 cells. Format: cell-based. As to the method:
To further confirm that the anti-c-Met scFv would bind specifically to endogenous c-Met on human cancer cells, H460 cells and c-Met knockdown H460 cells were stained with anti-c-Met scFv, either S1 or S20, and FACS analysis was carried out (FIG. 10, panel B).

Another assay addresses T5, c-MetF932-Fc protein (Homo sapiens, UniProt P08581).
T5 construct: DNA fragments encoding amino acid residues 1 to 932 and 1 to 567 of c-Met were amplified by PCR; made in house; host or cells: 293T cells, transient transfection, protein G purification from supernatant
Briefly: Competitive ELISA: soluble scFv inhibit HGF binding to immobilized c-Met protein. As to the method: To monitor inhibition effect of scFv, we coated the c-MetF932-Fc protein on a 96-well plate and blocked nonspecific binder with 3% BSA in PBS. 1 nM human HGF (R&D) plus varying concentrations of anti-c-Met scFv or normal mouse IgG were applied to the wells. The amount of HGF bound to c-Met was determined using goat anti-human HGF (R&D), following incubation of HRP-labeled mouse anti-goat IgG (Jackson ImmunoResearch) and OPD substrate (Sigma) plus H2O2. The absorbance was measured with 490 nm using a microplate reader. Inhibition percentage was calculated by the following equation: [(the absorbance of HGF bound without competitor)−(the absorbance of HGF bound with competitor)]/(the absorbance of HGF bound without competitor)×100%.
To test whether the three anti-c-Met scFvs could inhibit HGF binding to c-Met, the human lung cancer cell line H1993 was chosen to undergo competition ELISA (Lutterbach B et al. (2007) Cancer Res 67:2081-2088). […] HGF binding to H1993 cells without competitors was considered 100%. H1993 is known to express a high level of c-Met. When H1993 cells were incubated with HGF in the presence of the phage clones, the binding of HGF to H1993 cells was diminished by more than 90% by the anti-c-Met scFv PC1. PC20 inhibited more than 50% of HGF binding to c-Met (FIG. 2, panel A). The competitive inhibition of HGF by different concentrations of soluble scFvs was also tested. Normal mouse IgG (NMIgG) was used as a negative control. HGF binding to immobilized c-Met protein without competitors was considered 100%.

The target of assay [2] is T6, endogenous c-Met in cancer cells (Homo sapiens, UniProt P08581).
T6 construct: endogenous in cells
T6 sequence (P08581 25-1390): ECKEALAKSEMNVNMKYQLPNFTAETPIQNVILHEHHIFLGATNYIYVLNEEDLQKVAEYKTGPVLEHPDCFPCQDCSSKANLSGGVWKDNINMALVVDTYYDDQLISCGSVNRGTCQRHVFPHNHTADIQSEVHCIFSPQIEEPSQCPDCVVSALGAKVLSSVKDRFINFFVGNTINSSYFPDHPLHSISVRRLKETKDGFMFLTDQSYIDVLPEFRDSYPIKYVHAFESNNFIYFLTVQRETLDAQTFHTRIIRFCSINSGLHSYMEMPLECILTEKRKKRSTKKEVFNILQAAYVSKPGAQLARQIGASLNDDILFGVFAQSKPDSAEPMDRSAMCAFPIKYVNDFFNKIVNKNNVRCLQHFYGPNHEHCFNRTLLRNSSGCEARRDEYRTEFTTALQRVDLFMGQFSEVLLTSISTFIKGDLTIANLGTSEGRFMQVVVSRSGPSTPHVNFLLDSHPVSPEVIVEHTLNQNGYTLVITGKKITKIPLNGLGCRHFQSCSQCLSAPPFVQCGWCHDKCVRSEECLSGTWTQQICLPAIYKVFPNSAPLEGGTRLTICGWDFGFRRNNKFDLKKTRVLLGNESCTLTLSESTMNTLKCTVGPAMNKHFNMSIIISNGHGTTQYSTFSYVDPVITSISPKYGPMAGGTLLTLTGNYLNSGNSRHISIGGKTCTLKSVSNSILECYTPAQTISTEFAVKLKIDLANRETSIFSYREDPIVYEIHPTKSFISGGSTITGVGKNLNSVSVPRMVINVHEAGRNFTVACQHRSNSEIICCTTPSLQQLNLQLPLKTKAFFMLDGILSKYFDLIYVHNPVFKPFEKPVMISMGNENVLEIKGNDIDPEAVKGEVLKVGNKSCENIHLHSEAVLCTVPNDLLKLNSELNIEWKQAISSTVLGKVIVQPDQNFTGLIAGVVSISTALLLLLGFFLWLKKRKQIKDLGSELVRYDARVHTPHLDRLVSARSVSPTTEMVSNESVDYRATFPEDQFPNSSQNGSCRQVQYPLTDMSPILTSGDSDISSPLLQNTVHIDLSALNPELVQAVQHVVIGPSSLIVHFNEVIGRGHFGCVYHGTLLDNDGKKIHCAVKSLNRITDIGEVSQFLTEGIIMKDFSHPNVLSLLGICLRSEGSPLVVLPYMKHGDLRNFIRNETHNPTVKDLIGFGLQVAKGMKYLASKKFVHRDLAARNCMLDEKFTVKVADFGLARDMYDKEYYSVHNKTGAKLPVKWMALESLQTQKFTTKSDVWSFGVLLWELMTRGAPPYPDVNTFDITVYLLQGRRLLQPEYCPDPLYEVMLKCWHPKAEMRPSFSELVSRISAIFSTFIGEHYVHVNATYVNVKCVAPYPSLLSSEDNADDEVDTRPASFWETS
Briefly: ELISA of scFv binding to human cancer cell lines. The format is cell-based. Here is the method: as §1

The mark [3] stands for this setting: purified scFv, c-MetF932-Fc on CM5 chip.

T3 sequence (P08581 25-307): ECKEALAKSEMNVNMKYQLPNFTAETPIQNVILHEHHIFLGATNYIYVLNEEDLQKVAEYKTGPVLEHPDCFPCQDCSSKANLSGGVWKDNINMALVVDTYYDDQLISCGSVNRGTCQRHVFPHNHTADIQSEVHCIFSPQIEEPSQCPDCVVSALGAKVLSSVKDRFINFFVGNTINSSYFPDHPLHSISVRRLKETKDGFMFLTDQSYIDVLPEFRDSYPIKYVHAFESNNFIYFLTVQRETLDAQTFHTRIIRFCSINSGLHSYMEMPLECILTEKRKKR
T3 sequence (P08581 308-932): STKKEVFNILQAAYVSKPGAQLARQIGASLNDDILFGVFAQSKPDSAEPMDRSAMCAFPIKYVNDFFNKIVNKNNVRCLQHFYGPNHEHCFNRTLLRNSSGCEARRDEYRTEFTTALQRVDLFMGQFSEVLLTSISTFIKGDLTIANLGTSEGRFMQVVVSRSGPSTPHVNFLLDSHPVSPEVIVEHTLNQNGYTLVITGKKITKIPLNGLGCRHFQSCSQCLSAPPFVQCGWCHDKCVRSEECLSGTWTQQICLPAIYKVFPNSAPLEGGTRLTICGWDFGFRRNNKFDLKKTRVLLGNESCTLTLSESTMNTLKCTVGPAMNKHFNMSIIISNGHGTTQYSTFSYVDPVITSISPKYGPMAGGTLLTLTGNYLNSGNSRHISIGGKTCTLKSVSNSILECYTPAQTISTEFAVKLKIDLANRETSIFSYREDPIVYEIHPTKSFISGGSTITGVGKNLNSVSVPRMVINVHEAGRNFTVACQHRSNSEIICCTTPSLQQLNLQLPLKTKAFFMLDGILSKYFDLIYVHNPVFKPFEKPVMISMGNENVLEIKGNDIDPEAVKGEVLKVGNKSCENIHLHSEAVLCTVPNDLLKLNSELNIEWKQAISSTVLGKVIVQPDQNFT
T4 sequence (P08581 25-1390): as the sequence (P08581 25-1390) above
T5 sequence (P08581 25-307 limits assumed): as the sequence (P08581 25-307) above
T5 sequence (P08581 308-932 limits assumed): as the sequence (P08581 308-932) above

B1: S1: soluble anti-c-Met scFv corresponding to phage clone PC1; VH/VL sequences in Table 1 (protein)
scFv: MAQVQLQQSGPGLVKPSQTLSLTCDISGDSVSSNSAAWNWIRQSPSRGLEWLGRTYYRSRWYNEYAVSVRGRISINAETSKNQFSLQLNSVTPEDTAIYYCARAGFCSGGNCYPGSEDAFDLWGQGTMVTVGGGGSGGGGSGGGGSDVVMTQSPPSLSVSVGDRVTITCRASQDITNDLNWYQQKPGKAPQLLIYHASELETGVPSRFSGSGFGTDFTLTISSLQPADIATYYCQQYDDLPLTFGGGTKVEIKR
modifications: left off: small tags and cut ends
As usually defined, the Kd is the constant that tells how readily two partners part at equilibrium. The term IC50 denotes the concentration needed to halve the response being measured. A high value points to a need for much substance. Regarding B1, in the assay with VEGF-stimulated HUVECs, the “Binding to VEGF-stimulated HUVECs” value is on record as “bound”. The “Binding to c-Met567-Fc compared to c-Met932-Fc” value with c-Met567-Fc protein is “similar”. Also, the “Inhibition of HGF-induced c-Met phosphorylation” value in the assay with c-Met is given as 65.7%. The Kd with c-Met932-Fc protein (purified scFv 5 to 200 nM, c-MetF932-Fc coupled to CM5 chip, Kd calculated by BIAevaluation software) was 6.82 nM. In the assay with c-Met932-Fc protein (setting [3]), this molecule yielded a Koff of 0.00134 s⁻¹ and a Kon of 215000 M⁻¹ s⁻¹. In assay [1] (c-Met knockdown H460), the “Binding activity in c-Met knockdown H460 cells” value is “dramatically decreased”. Moreover, the “Binding to H460 cells” value in assay [1] (c-Met wildtype H460) was “able to bind”. Besides, the IC50 in the assay with c-MetF932-Fc protein (1 nM human HGF, immobilized c-Met protein, soluble scFv) was 27.4 nM. Also, the “Inhibition of binding activity of HGF to c-Met” value in the assay with c-MetF932-Fc protein (different concentrations of soluble scFv) was “dose-dependently inhibited”. For the same molecule, the “Reactivity with A498, U2OS and NNM cells” value in assay [2] (A498, U2OS, NNM cells) is given as “did not react”. In addition, the “Binding to human cancer cell lines” value in assay [2] (SKOV3, Mahlavu, SAS, PC3, MDA-MB-231, HCT116, Paca-2, NPC-TW04, H1993 cells, vs control antibody) is on record as “found to bind”.
